The target of experiment [1] is T1, ヒト前立腺特異的膜抗原(PSMA) (human, UniProt Q04609 1-750).
T1 construct: whole, on cells; also called PSMA; ヒトPSMA
Description: flow cytometry, 10 μg/mL, Namalwa KJM-1 cells transfected with PSMA cDNA (pAMoPSMA).

Experiment [2] addresses T1, ヒト前立腺特異的膜抗原(PSMA). Kind of experiment: flow cytometry, 10 μg/mL, LNCaP cells. A general note: A flow cytometer gives signals particle by particle.

T1 sequence (Q04609 whole entry): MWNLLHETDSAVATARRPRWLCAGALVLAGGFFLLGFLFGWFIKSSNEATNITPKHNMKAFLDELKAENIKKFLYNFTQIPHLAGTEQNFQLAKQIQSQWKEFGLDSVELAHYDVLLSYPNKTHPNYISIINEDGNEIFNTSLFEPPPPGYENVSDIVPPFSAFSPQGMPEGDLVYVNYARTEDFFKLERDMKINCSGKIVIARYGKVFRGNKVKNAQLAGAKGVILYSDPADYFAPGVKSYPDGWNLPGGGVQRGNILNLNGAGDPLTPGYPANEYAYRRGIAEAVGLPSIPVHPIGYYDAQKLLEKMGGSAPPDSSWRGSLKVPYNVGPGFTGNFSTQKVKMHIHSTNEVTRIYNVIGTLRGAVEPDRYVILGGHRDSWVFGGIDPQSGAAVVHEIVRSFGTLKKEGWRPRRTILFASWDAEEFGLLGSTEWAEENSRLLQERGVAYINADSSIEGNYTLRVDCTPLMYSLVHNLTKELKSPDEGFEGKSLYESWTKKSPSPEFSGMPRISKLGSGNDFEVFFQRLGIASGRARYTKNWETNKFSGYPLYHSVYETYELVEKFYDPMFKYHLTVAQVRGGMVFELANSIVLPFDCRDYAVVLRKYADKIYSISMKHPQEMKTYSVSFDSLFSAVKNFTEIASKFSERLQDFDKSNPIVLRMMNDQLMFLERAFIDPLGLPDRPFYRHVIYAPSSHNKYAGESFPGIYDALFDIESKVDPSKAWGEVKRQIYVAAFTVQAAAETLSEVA

B1: 抗PSMAマウス抗体2C9 (antibody, V domains shown)
VH: DVHLQESGPGLVKPSQSLSLTCTVTGYSITSDYAWNWIRQFPGNKLEWMGYISFSGSTSYNPSLKSRISVTRDTSKNQFFLQLNSVTTEDTATYYCARWNYYGSSHVWFAYWGQGTLVTVSA
VL: DIKMTQSPSSMYASLGERVTITCKASQDIYSYLIWFQQKPGKSPKTLIYRANRLVDGVPSRFSGSGSGQDYSLTISSLEYEDMGIYYCLQYDEFATFGSGTKLEMKR
notes: Whole mouse antibody from hybridoma; also called マウスモノクローナル抗体2C9; 2C9
In the case of B1, the binding result in experiment [1] is listed as “binds”.

B2: 抗PSMAキメラ抗体KM2777 (antibody, human IgG1, V domains shown)
VH: B1 VH
VL: B1 VL
notes: Human-type chimeric antibody: 2C9 VH joined to human IgG1 CH and 2C9 VL joined to human kappa CL (vector pKANTEX93), produced in YB2/0 cells; also called KM2777; 抗PSMAヒト型キメラ抗体
Regarding B2, the binding result in experiment [2] is “binds”.

B3: アドリアマイシン結合抗PSMAキメラ抗体ADM−KM2777 (antibody, human IgG1, V domains shown)
VH: B1 VH
VL: B1 VL
modifications: as for the heavy chain: linker on amino groups, sites not stated; adriamycin-(Gly-Pro)-PEG linker (PEG average MW about 2,000) coupled through NHS ester to amino groups of the antibody; on average 2.5 ADM per antibody molecule; sites not stated
notes: also called ADM-KM2777
Turning to B3, in experiment [2], the binding result is given as “binds”.

Source of the values: patent JP2004000045A (dated 2004).
